Target: polymeric Ig receptor (pIgR) fused to the FLAG tag (UniProt P01833)
Assay: flow cytometry on cells

Sequence of UniProt P01833 (P01833 19-764): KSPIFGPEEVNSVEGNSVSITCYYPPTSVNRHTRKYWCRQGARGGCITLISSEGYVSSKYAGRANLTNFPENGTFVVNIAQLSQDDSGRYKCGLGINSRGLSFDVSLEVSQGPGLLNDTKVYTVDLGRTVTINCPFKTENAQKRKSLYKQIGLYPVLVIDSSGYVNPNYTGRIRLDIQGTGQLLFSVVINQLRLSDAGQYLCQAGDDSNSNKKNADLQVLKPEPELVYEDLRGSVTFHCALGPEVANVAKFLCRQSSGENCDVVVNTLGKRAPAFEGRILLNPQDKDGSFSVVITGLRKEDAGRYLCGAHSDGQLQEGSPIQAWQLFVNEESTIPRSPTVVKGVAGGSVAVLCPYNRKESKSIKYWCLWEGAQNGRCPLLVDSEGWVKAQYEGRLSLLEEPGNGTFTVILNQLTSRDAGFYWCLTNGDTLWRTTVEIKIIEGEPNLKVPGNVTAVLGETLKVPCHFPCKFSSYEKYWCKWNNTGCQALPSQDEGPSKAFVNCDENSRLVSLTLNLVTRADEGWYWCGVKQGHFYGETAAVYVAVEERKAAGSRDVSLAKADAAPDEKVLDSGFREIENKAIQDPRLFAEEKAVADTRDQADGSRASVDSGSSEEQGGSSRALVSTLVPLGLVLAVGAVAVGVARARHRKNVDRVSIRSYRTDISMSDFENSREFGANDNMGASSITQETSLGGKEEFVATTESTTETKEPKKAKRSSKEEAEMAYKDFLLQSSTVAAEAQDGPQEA

| Substance | mean percent binding to pIgR-expressing cells, ORF8-expressing cells [%] | mean percent binding to pIgR-expressing cells, control cells [%] | percent ORF8 binding left with 10 ug/mL IgA [%] |
| --- | --- | --- | --- |
| IgA from human colostrum (from UniProt P01591 23-159) (ligand) | 36.9 | 59.6 | 18 |
| IgM from human serum (ligand) | 25.1 | 33.9 | – |

Source: PMC11281603
